Test system: Escherichia coli TOP10
Assay: shrunken log2 fold change of peptide-encoding DNA abundance (4.5 h post-induction vs induction); higher = less antimicrobial activity (less host growth inhibition)
Conditions: time post-induction: 4.5 h; library: site-saturation at positions 5, 18, 19, 20
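Further: peptides expressed intracellularly from a pBAD plasmid library in pooled LB shake-flask culture, induced with 0.3% L-arabinose, DNA abundance read by NGS, three biological replicates, DESeq2 with apeglm shrinkage.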

RRIRHRPPRLPRPRPRPQKTPRP
shrunken log2 fold change: 0.00246

RRIRRRPPRLPRPRPRPINTPRP
shrunken log2 fold change: -0.364

RRIRKRPPRLPRPRPRPRHMPRP
shrunken log2 fold change: -0.0275

RRIRHRPPRLPRPRPRPYRCPRP
shrunken log2 fold change: 0.0121

RRIRYRPPRLPRPRPRPYALPRP
shrunken log2 fold change: -0.172

RRIRARPPRLPRPRPRPYTFPRP
shrunken log2 fold change: -0.444

RRIRYRPPRLPRPRPRPSYWPRP
shrunken log2 fold change: -0.716

RRIRYRPPRLPRPRPRPDIKPRP
shrunken log2 fold change: -0.602

RRIRCRPPRLPRPRPRPFNMPRP
shrunken log2 fold change: -0.052

RRIRIRPPRLPRPRPRPQQFPRP
shrunken log2 fold change: -0.709

RRIRPRPPRLPRPRPRPDQCPRP
shrunken log2 fold change: 0.139

RRIRYRPPRLPRPRPRPQCVPRP
shrunken log2 fold change: -0.127

RRIRGRPPRLPRPRPRPHWCPRP
shrunken log2 fold change: 0.00693

RRIRHRPPRLPRPRPRPFCTPRP
shrunken log2 fold change: -0.294

RRIRARPPRLPRPRPRPLSNPRP
shrunken log2 fold change: 0.25

RRIRTRPPRLPRPRPRPWTQPRP
shrunken log2 fold change: 0.0256

RRIRGRPPRLPRPRPRPHGSPRP
shrunken log2 fold change: -0.0658

RRIRHRPPRLPRPRPRPHWSPRP
shrunken log2 fold change: -0.205

RRIRYRPPRLPRPRPRPAFHPRP
shrunken log2 fold change: -0.518

RRIRSRPPRLPRPRPRPKFNPRP
shrunken log2 fold change: -0.573

RRIRLRPPRLPRPRPRPMKLPRP
shrunken log2 fold change: -0.187

RRIRARPPRLPRPRPRPYKSPRP
shrunken log2 fold change: -0.441

RRIRERPPRLPRPRPRPKHEPRP
shrunken log2 fold change: -0.205

RRIRCRPPRLPRPRPRPDTQPRP
shrunken log2 fold change: -0.239

RRIRYRPPRLPRPRPRPTHTPRP
shrunken log2 fold change: 0.049

RRIRPRPPRLPRPRPRPLQTPRP
shrunken log2 fold change: 0.0208

RRIRHRPPRLPRPRPRPECCPRP
shrunken log2 fold change: 0.203

RRIRSRPPRLPRPRPRPENFPRP
shrunken log2 fold change: -0.0342

RRIRSRPPRLPRPRPRPATHPRP
shrunken log2 fold change: -0.0838

RRIRDRPPRLPRPRPRPQVQPRP
shrunken log2 fold change: -0.0379

RRIRQRPPRLPRPRPRPCPEPRP
shrunken log2 fold change: -0.249

RRIRFRPPRLPRPRPRPKWLPRP
shrunken log2 fold change: 0.251

RRIRGRPPRLPRPRPRPSDTPRP
shrunken log2 fold change: 0.116

RRIRIRPPRLPRPRPRPLSAPRP
shrunken log2 fold change: -0.112

RRIRDRPPRLPRPRPRPCSYPRP
shrunken log2 fold change: -0.138

RRIRIRPPRLPRPRPRPSYHPRP
shrunken log2 fold change: -0.933

RRIRIRPPRLPRPRPRPTVWPRP
shrunken log2 fold change: 0.163

RRIRWRPPRLPRPRPRPFNDPRP
shrunken log2 fold change: -0.153

RRIRVRPPRLPRPRPRPIVCPRP
shrunken log2 fold change: -0.0744

RRIRERPPRLPRPRPRPLRTPRP
shrunken log2 fold change: 0.00359

RRIRDRPPRLPRPRPRPDLSPRP
shrunken log2 fold change: 0.0253

RRIRTRPPRLPRPRPRPYEWPRP
shrunken log2 fold change: -0.139

RRIRKRPPRLPRPRPRPYCPPRP
shrunken log2 fold change: 0.0231

RRIRSRPPRLPRPRPRPPAKPRP
shrunken log2 fold change: 1.05

RRIRRRPPRLPRPRPRPWGVPRP
shrunken log2 fold change: 0.405

RRIRVRPPRLPRPRPRPRAQPRP
shrunken log2 fold change: 0.126

RRIRKRPPRLPRPRPRPSMTPRP
shrunken log2 fold change: -0.0765

RRIRLRPPRLPRPRPRPQGSPRP
shrunken log2 fold change: -0.0921

RRIRERPPRLPRPRPRPTAQPRP
shrunken log2 fold change: 0.416

RRIRCRPPRLPRPRPRPISAPRP
shrunken log2 fold change: -0.142

RRIRTRPPRLPRPRPRPFQGPRP
shrunken log2 fold change: -0.00192

RRIRDRPPRLPRPRPRPCEDPRP
shrunken log2 fold change: -0.0105

RRIRIRPPRLPRPRPRPDGNPRP
shrunken log2 fold change: -0.0425

RRIRNRPPRLPRPRPRPNVAPRP
shrunken log2 fold change: 3.26

RRIRLRPPRLPRPRPRPYAMPRP
shrunken log2 fold change: -0.226

RRIRPRPPRLPRPRPRPLDGPRP
shrunken log2 fold change: 0.0208

RRIRYRPPRLPRPRPRPLMLPRP
shrunken log2 fold change: -1.32

RRIRWRPPRLPRPRPRPHCYPRP
shrunken log2 fold change: -0.0542

RRIRCRPPRLPRPRPRPFFCPRP
shrunken log2 fold change: -0.132

RRIRKRPPRLPRPRPRPGQVPRP
shrunken log2 fold change: 0.00902

RRIRARPPRLPRPRPRPYAFPRP
shrunken log2 fold change: -0.125

RRIRNRPPRLPRPRPRPKGNPRP
shrunken log2 fold change: -0.00941

RRIRRRPPRLPRPRPRPPGMPRP
shrunken log2 fold change: 0.821

RRIRPRPPRLPRPRPRPVDPPRP
shrunken log2 fold change: 0.0557

RRIRFRPPRLPRPRPRPETRPRP
shrunken log2 fold change: 0.159

RRIRMRPPRLPRPRPRPGANPRP
shrunken log2 fold change: 1.17

RRIRQRPPRLPRPRPRPVMHPRP
shrunken log2 fold change: -0.679

RRIRMRPPRLPRPRPRPPRNPRP
shrunken log2 fold change: 1.27

RRIRKRPPRLPRPRPRPQMEPRP
shrunken log2 fold change: -0.0377

RRIRCRPPRLPRPRPRPMCEPRP
shrunken log2 fold change: -0.0476

RRIRWRPPRLPRPRPRPPCRPRP
shrunken log2 fold change: -0.0876

RRIRDRPPRLPRPRPRPQEAPRP
shrunken log2 fold change: -0.0652

RRIRARPPRLPRPRPRPKPYPRP
shrunken log2 fold change: 0.0727

RRIRDRPPRLPRPRPRPMLCPRP
shrunken log2 fold change: -0.00642

RRIRNRPPRLPRPRPRPMTSPRP
shrunken log2 fold change: -0.0113

RRIRERPPRLPRPRPRPANDPRP
shrunken log2 fold change: -0.0189

RRIRERPPRLPRPRPRPLHFPRP
shrunken log2 fold change: -0.141

RRIRPRPPRLPRPRPRPDMLPRP
shrunken log2 fold change: -0.147

RRIRERPPRLPRPRPRPPHQPRP
shrunken log2 fold change: -0.0506

RRIRVRPPRLPRPRPRPSIRPRP
shrunken log2 fold change: -0.285

RRIRVRPPRLPRPRPRPSKVPRP
shrunken log2 fold change: -0.693

RRIRVRPPRLPRPRPRPVNPPRP
shrunken log2 fold change: -0.464

RRIRKRPPRLPRPRPRPGESPRP
shrunken log2 fold change: 0.0841

RRIRKRPPRLPRPRPRPHINPRP
shrunken log2 fold change: -0.124

RRIRRRPPRLPRPRPRPQQFPRP
shrunken log2 fold change: 0.0492

RRIRGRPPRLPRPRPRPVYMPRP
shrunken log2 fold change: 0.361

RRIRNRPPRLPRPRPRPGSAPRP
shrunken log2 fold change: 0.025

RRIRFRPPRLPRPRPRPIKEPRP
shrunken log2 fold change: -0.113

RRIRGRPPRLPRPRPRPECHPRP
shrunken log2 fold change: 1.62

RRIRIRPPRLPRPRPRPRWKPRP
shrunken log2 fold change: 0.0818

RRIRARPPRLPRPRPRPLPEPRP
shrunken log2 fold change: 0.542

RRIRSRPPRLPRPRPRPEQDPRP
shrunken log2 fold change: 0.206

RRIRHRPPRLPRPRPRPRWDPRP
shrunken log2 fold change: 0.127

RRIRVRPPRLPRPRPRPPWPPRP
shrunken log2 fold change: 0.464

RRIRFRPPRLPRPRPRPAMEPRP
shrunken log2 fold change: 0.0126

RRIRKRPPRLPRPRPRPCLFPRP
shrunken log2 fold change: 0.0241

RRIRWRPPRLPRPRPRPQDGPRP
shrunken log2 fold change: 0.0557

RRIRRRPPRLPRPRPRPCVEPRP
shrunken log2 fold change: -0.0155

RRIRSRPPRLPRPRPRPVAEPRP
shrunken log2 fold change: 1.28

RRIRRRPPRLPRPRPRPRPCPRP
shrunken log2 fold change: 0.384

RRIRNRPPRLPRPRPRPGSGPRP
shrunken log2 fold change: 0.179

RRIRWRPPRLPRPRPRPRHWPRP
shrunken log2 fold change: 0.0523

RRIRHRPPRLPRPRPRPGTFPRP
shrunken log2 fold change: -0.132

RRIRWRPPRLPRPRPRPDDCPRP
shrunken log2 fold change: -0.0829

RRIRGRPPRLPRPRPRPVVYPRP
shrunken log2 fold change: 0.268

RRIRIRPPRLPRPRPRPDMYPRP
shrunken log2 fold change: -0.173

RRIRKRPPRLPRPRPRPESAPRP
shrunken log2 fold change: 1.72

RRIRRRPPRLPRPRPRPFHCPRP
shrunken log2 fold change: 0.089

RRIRPRPPRLPRPRPRPVYHPRP
shrunken log2 fold change: -0.388

RRIRVRPPRLPRPRPRPNISPRP
shrunken log2 fold change: -0.321

RRIRDRPPRLPRPRPRPMWQPRP
shrunken log2 fold change: 0.00699

RRIRERPPRLPRPRPRPIKGPRP
shrunken log2 fold change: -0.0123

RRIRDRPPRLPRPRPRPPIHPRP
shrunken log2 fold change: -0.487

RRIRMRPPRLPRPRPRPRRNPRP
shrunken log2 fold change: 0.807

RRIRNRPPRLPRPRPRPGDCPRP
shrunken log2 fold change: 0.404

RRIRSRPPRLPRPRPRPTAEPRP
shrunken log2 fold change: 0.825

RRIRQRPPRLPRPRPRPWFYPRP
shrunken log2 fold change: -0.373

RRIRKRPPRLPRPRPRPSWKPRP
shrunken log2 fold change: 0.0521

RRIRERPPRLPRPRPRPIFDPRP
shrunken log2 fold change: -0.349

RRIRNRPPRLPRPRPRPYFWPRP
shrunken log2 fold change: -0.0871

RRIRDRPPRLPRPRPRPWRHPRP
shrunken log2 fold change: 0.0719

RRIRARPPRLPRPRPRPRKSPRP
shrunken log2 fold change: 0.778

RRIRFRPPRLPRPRPRPKEKPRP
shrunken log2 fold change: -0.0715

RRIRERPPRLPRPRPRPQVEPRP
shrunken log2 fold change: 0.0218

RRIRYRPPRLPRPRPRPMCGPRP
shrunken log2 fold change: -0.17

— the supplement of paper PMC9112550, “Optimization of the antimicrobial peptide Bac7 by deep mutational scanning” (BMC Biology, 2022)
